Assay results reported in patent US20200079833A1 (AstraZeneca / MedImmune, published 2020).
Starred links: 1 amine or outer side, 2 acyl side, 3 side chain; linkers in the order of their positions; H or OH if unused. Non-standard residues stand in square brackets, D forms with d. Groups on a side chain read outwards from the residue. Primed or numbered codes have the meaning given here. No end group written: not given here. *: point of attachment. γGlu = O=C(O)[C@H](CCC(=O)[*:2])N[*:1]; Stearoyl = CCCCCCCCCCCCCCCCCC(=O)*; Palmitoyl = CCCCCCCCCCCCCCCC(=O)*; αMeF = C[C@](N)(Cc1ccccc1)C(=O)O; αMeK = C[C@](N)(CCCCN)C(=O)O; αMeS = C[C@](N)(CO)C(=O)O; PEG2′ = not defined here; Aib = CC(C)(N)C(=O)O

T1: glucose-dependent insulinotropic peptide (gastric inhibitory polypeptide) receptor (human, UniProt P48546 22-466)
T1 sequence (looked up): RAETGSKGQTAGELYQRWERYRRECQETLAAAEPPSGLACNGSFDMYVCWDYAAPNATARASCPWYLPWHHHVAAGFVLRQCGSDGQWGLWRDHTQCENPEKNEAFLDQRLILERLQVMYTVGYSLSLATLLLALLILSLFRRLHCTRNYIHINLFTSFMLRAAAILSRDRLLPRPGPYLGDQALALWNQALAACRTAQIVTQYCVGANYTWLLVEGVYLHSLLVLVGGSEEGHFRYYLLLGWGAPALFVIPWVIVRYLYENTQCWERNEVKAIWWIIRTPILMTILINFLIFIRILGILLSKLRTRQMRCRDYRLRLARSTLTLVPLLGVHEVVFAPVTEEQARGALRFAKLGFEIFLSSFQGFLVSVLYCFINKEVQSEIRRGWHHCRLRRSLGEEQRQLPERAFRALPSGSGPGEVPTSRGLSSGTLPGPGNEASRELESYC

B1: SEQ ID NO 71 (peptide)
peptide: H[Aib]EGS[αMeF]TSDV[αMeS]S[αMeF]LEGEAA[αMeK]E[αMeF]IA[αMeF]VV[αMeK]K([γGlu-Palmitoyl])G-NH2
modifications: N-terminus assumed
SMILES: CCCCCCCCCCCCCCCC(=O)N[C@@H](CCC(=O)NCCCC[C@H](NC(=O)[C@](C)(CCCCN)NC(=O)[C@@H](NC(=O)[C@@H](NC(=O)[C@](C)(Cc1ccccc1)NC(=O)[C@H](C)NC(=O)[C@@H](NC(=O)[C@](C)(Cc1ccccc1)NC(=O)[C@H](CCC(=O)O)NC(=O)[C@](C)(CCCCN)NC(=O)[C@H](C)NC(=O)[C@H](C)NC(=O)[C@H](CCC(=O)O)NC(=O)CNC(=O)[C@H](CCC(=O)O)NC(=O)[C@H](CC(C)C)NC(=O)[C@](C)(Cc1ccccc1)NC(=O)[C@H](CO)NC(=O)[C@](C)(CO)NC(=O)[C@@H](NC(=O)[C@H](CC(=O)O)NC(=O)[C@H](CO)NC(=O)[C@@H](NC(=O)[C@](C)(Cc1ccccc1)NC(=O)[C@H](CO)NC(=O)CNC(=O)[C@H](CCC(=O)O)NC(=O)C(C)(C)NC(=O)[C@@H](N)Cc1c[nH]cn1)[C@@H](C)O)C(C)C)[C@@H](C)CC)C(C)C)C(C)C)C(=O)NCC(N)=O)C(=O)O
B2: SEQ ID NO 69 (peptide)
peptide: H[Aib]EGS[αMeF]TSDV[αMeS]S[αMeF]LEGEAAAEFIK([PEG2′-PEG2′-γGlu-Stearoyl])WVVEGG-NH2
B3: SEQ ID NO 66 (peptide)
peptide: H[Aib]EGS[αMeF]TSDV[αMeS]S[αMeF]LEGEAAEEFIK([PEG2′-PEG2′-γGlu-Stearoyl])WVVEGG-NH2
B4: SEQ ID NO 64 (peptide)
peptide: H[Aib]EGS[αMeF]TSDVSK([PEG2′-PEG2′-PEG2′-Stearoyl])YLEGEAA[αMeK]E[αMeF]IA[αMeF]VVEGG-NH2
B5: SEQ ID NO 59 (peptide)
peptide: H[Aib]EGS[αMeF]TSDVSK([PEG2′-PEG2′-γGlu-Stearoyl])YLEGEAA[Aib]E[αMeF]IA[αMeF]VVEGG-NH2
B6: SEQ ID NO 62 (peptide)
peptide: H[Aib]EGS[αMeF]TSDVSK([PEG2′-PEG2′-PEG2′-Stearoyl])YLEGEAAEE[αMeF]IA[αMeF]VVEGG-NH2
B7: SEQ ID NO 68 (peptide)
peptide: H[Aib]EGS[αMeF]TSDV[αMeS]S[αMeF]LEGEAA[αMeK]EFIK([PEG2′-PEG2′-γGlu-Stearoyl])WVVEGG-NH2

Experiments:
Test in all cases: cell-based or functional assay
[1] = biological target: GLP-1 receptor (human, UniProt P43220 24-463)
[2] = biological target: T1, glucose-dependent insulinotropic …
[3] = biological target: glucagon receptor (human, UniProt P47871 26-477)
glucagon receptor, sequence (P47871 26-477): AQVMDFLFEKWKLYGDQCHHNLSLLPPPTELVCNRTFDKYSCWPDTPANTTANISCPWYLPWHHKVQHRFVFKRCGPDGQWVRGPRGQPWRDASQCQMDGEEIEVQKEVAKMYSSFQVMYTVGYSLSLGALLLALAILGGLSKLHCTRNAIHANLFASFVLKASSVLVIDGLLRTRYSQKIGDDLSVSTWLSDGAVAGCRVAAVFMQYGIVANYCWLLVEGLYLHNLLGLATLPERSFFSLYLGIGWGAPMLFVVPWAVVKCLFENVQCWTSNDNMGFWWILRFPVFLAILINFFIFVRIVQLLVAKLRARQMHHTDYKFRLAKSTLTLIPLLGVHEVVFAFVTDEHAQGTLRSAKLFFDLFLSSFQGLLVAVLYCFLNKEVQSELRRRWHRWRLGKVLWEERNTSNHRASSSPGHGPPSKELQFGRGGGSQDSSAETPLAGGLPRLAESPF

Row | Binder | Primary assay EC50 (cAMP), Mean pM GLP-1R [1] | Primary assay EC50 (cAMP), n1 [1] | Primary assay EC50 (cAMP), n2 [1] | Primary assay EC50 (cAMP), n1 [2] | Primary assay EC50 (cAMP), n2 [2] | Primary assay EC50 (cAMP), n1 [3] | Primary assay EC50 (cAMP), n2 [3]
1 | B1 | 7.1 pM | 0.0062 nM | 0.008 nM | 27 nM | 27 nM | 27 nM | 27 nM
2 | B2 | 53 pM | 0.0661 nM | 0.0399 nM | 25.5 nM | 25.5 nM | 25.5 nM | 25.5 nM
3 | B3 | 150 pM | 0.203 nM | 0.0979 nM | 25.1 nM | 25.1 nM | 25.1 nM | 25.1 nM
4 | B4 | 1.3 pM | 0.0014 nM | 0.0012 nM | 25 nM | 25 nM | 25 nM | 25 nM
5 | B5 | 211 pM | 0.243 nM | 0.179 nM | 25.6 nM | 25.6 nM | 25.6 nM | 25.6 nM
6 | B6 | 1.9 pM | 0.002 nM | 0.0018 nM | 25 nM | 25 nM | 25 nM | 25 nM
7 | B7 | 18.8 pM | 0.0221 nM | 0.0155 nM | 25 nM | 25 nM | 25 nM | 25 nM
